Source: patent publication US10758588 (PURDUE RESEARCH FOUNDATION, dated 2020)
* marks the point of attachment. 5FAM = O=C1OC2(c3ccc(O)cc3Oc3cc(O)ccc32)c2ccc(C(=O)*)cc21; Ahx = NCCCCCC(=O)O

Biological target: T1, N-terminal His-tag PCNA (recombinant (His)6-PCNA fusion protein; Proliferating Cell Nuclear Antigen) (Homo sapiens (Human), UniProt P12004 1-261)
T1 construct: Expressed in E. coli BL21 (DE3) from vector pEV-L8, which carries an N-terminal His-tag and a TEV protease site; No tag cleavage is described; also called His-tagged PCNA; recombinant PCNA
Test: fluorescence polarization; fixed FAM-PL (5 nM) titrated with two-fold increasing recombinant His-tagged PCNA
Source text: [a]N-substituted side chains listed from N-terminus to most C-terminal [b]as determined by high resolution electrospray ionization or MALDI-TOF [c]based on dry mass recovery after HPLC purification After synthesis and purification, peptoids were screened in a fluorescence polarization (FP) assay to find ligands that disrupted the interaction between His-tagged PCNA and fluorescein-labeled Pogo Ligase peptide (FAM-PL) (Kontopidis, G., et al. Proc. Natl. Acad. Sci. U.S.A. 2005, 102 (6), 1871-1876). In the design of the assay, conditions were adopted from Pedley et al., 2016, to improve the dynamic range between bound and unbound FAM-PL. While an acceptable Z-score was determined using the original 10 nM peptide and 100 nM PCNA (FIG. 4), an improved dynamic range was established by adjusting the ligand and receptor concentrations. […]
Increasing amounts of recombinant (His)_6-PCNA protein (SEQ ID NO: 3) were prepared in FP binding buffer (25 mM HEPES at pH 7.4, 10% glycerol, 0.01% Triton X-100), with an 11-step 2-fold dilution series, and a top concentration of 30 μM. […] Fluorescence polarization and resultant anisotropy were measured on a BioTek Synergy 4 Multi-Detection Microplate Reader using an excitation filter of 485 nm and an emission filter of 530 nm, each with a 20 nm band-pass.

T1 sequence (P12004 other isoform, or with tags, fused parts or gaps limits assumed): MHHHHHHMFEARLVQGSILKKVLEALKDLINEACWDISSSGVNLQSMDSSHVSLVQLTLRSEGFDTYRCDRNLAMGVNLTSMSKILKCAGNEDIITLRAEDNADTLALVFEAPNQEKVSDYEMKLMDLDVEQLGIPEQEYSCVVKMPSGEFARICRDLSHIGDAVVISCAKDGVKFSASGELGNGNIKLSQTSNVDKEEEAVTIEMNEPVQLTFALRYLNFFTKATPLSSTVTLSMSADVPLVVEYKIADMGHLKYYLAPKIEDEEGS

Kd: 107 nM
B1: 5-FAM-labeled POGO ligase peptide (FAM-PL) (peptide)
peptide: {5FAM-Ahx}-SAVLQKKITDYFHPKK-NH2
notes: also called fluorescein-labeled Pogo Ligase peptide; PL peptide
